In article PMC11033526 (2023):
No end group written: not given here. *: point of attachment. Biotin = O=C1N[C@H]2[C@H](CS[C@H]2CCCCC(=O)*)N1

Experiments:
mouse calmodulin [1] = molecular target: T1, mouse calmodulin (mouse, UniProt P0DP26 1-149); assay: SPR; 1 mM EGTA (no Ca2+)
mouse calmodulin [2] = molecular target: T1, mouse calmodulin; assay: SPR; 1 mM EGTA (no Ca2+); remark: listed apart in the source

- koff (mouse calmodulin [1]): 0.00207 s⁻¹
- Kd (mouse calmodulin [2]): 9.7 µM
B1: biotin-mT1r2 CT peptide (cytosolic C-terminal region of mouse taste receptor type 1 subunit 2) (peptide)
peptide: Biotin-GGSGGSPKCYMILFYPERNTSAYFNSMIQGYTMRKS
